Data taken from article PMC5120204, “Identification of an orally active small-molecule PTHR1 agonist for the treatment of hypoparathyroidism” (Nature Communications, 2016).
Where two headings read alike, the source gives them in different places. Blank lines part the entries; values can stand above or below the compound they belong to.

Experiments:
TPTX rats [1] = assay: Repeated administration study in TPTX rats, study 1; assay type: in vivo, rat
Procedure: (§1) TPTX was carried out in 6-week-old female Crl:CD (SD) rats (Charles River Laboratories). Rats with serum Ca levels of <8.0 mg dl^−1 at 5 days after surgery were used in the following experiments. The rats were divided into four groups both in study 1 and 2, each with a similar mean value of serum Ca levels and body weight. Sample sizes were determined as described in the above single administration study. To evaluate the calcemic effects of PCO371 and hPTHs, we defined a target therapeutic range for serum Ca of 7.6–11.2 mg dl^−1, which corresponds to the low normal to normal range of serum Ca levels.
TPTX rats were treated twice daily (at around 09:00 and 19:00 hours) orally (vehicle or PCO371 at 1, 3 or 9 mg kg^−1) or subcutaneously [hPTH(1–34) or vehicle at 9 nmol kg^−1] for 4 weeks. Four rats were assigned to sham control, and treated with vehicle for PCO371. Vehicles for PCO371 and hPTH(1–34) were the same as in the OVX rat study. Under isoflurane anaesthesia, jugular vein blood was collected immediately before and at 6 and 10 h (for PCO371) or at 1 and 10 h (for hPTH) after administrations to measure the serum Ca levels on days 1 (the first dosing day), 7, 14, 22 and 29. Urine was collected for 24 h by using metabolic cages on days 29–30, and Ca excretion was calculated from urine volume and Ca level. Under isoflurane anaesthesia, jugular vein blood was collected 10 h after administrations to measure serum 1,25(OH)2D3 levels on Day 29 by using a 1,25(OH)2D3 RIA kit (Fujirebio). Four or five TPTX rats were assigned to each dose group. Serum and urine Ca levels were measured in the same way as in the single-dosing study. In another experiment, TPTX rats were treated subcutaneously once daily with hPTH(1–84) at 9 nmol kg^−1, for 4 weeks. Serum Ca was measured immediately before and at 2, 6 and 10 h after administration on day 1 (the first dosing day), 7, 14, 21 and 28 using the same method as described above. Urine was collected for 24 h by using metabolic cages on days 28 and 29, and Ca excretion was calculated from urine volume and Ca level.

[2] = human; ref Calcifi Tissue Int 2010 87:485, J Bone Miner Res 2013 28:2232, J Pharmcol Exp Ther 2009 330:169; cited from earlier work
patients = tested on: patients; set-up: method as in PMID 23649554; conditions: once-daily dosing; cited from earlier work
TPTX rats [3] = assay: Single administration study in TPTX rats; assay type: in vivo, rat; conditions: TPTX studies, 0.9 nmol/kg
Procedure: TPTX was carried out in 6-week-old female Crl:CD(SD) rats (Charles River Laboratories). Rats with serum Ca levels of <8.0 mg dl^−1 at 5 days after surgery were used for the experiment. The rats were divided into six groups, each with a similar mean value of serum Ca levels and body weight. TPTX rats were treated once orally (vehicle or PCO371 at 1.3, 6.5 or 33 mg kg^−1) or subcutaneously (vehicle or hPTH(1–84) (Chugai Pharmaceutical) at 9 nmol kg^−1). Six TPTX rats were assigned to each dose group. The sample size was determined based on previous experiments and a published study with hPTHs and LA-PTH in our laboratories[24] (n=5–6). Vehicle for PCO371 was the same as in the OVX rat study, and phosphate-citrate buffer (pH 6.0) was used as vehicle for hPTH(1–84). Under isoflurane anaesthesia, jugular vein blood was collected immediately before and at 1, 2, 6, 10 and 24 h after administrations to measure serum Ca (o-CPC method, Wako Pure Chemical Industries) and Pi levels (xanthine oxidase method, Wako Pure Chemical Industries).
In another experiment, the effects of a single treatment with PCO371 or hPTH(1–34) on serum Ca and Pi in TPTX rats (6-week-old) were evaluated at the dose of 3, 9.5 or 30 mg kg^−1 (PCO371, p.o.) or 9 nmol kg^−1 (hPTH(1–34), s.c.) according to the same method as that described above.

[4] = set-up: method as in earlier work; conditions: rat; ref Calcifi Tissue Int 2010 87:485, J Bone Miner Res 2013 28:2232, J Pharmcol Exp Ther 2009 330:169; cited from earlier work
[5] = Pharmacokinetics in TPTX rats; assay type: in vivo, rat
TPTX rats [6] = assay: Repeated administration study in TPTX rats, study 2 (add-on to alfacalcidol); assay type: in vivo, rat; conditions: alone at 75 ng kg^−1 once-daily oral, 4 weeks
Procedure: as §1
TPTX rats were orally treated once daily (vehicle; alfacalcidol (Chugai Pharma Manufacturing) at 38 or 75 ng kg^−1; or alfacalcidol at 38 ng kg^−1 plus PCO371 at 6 mg kg^−1) for 4 weeks. Five or six TPTX rats were assigned to each dose group. The vehicle for alfacalcidol was medium-chain triglyceride (Chugai Pharma Manufacturing). Under isoflurane anaesthesia, jugular vein blood was collected immediately before and at 6 and 10 h after administration to measure serum Ca levels on day 1 (the first dosing day), 8, 14, 22 and 28. Urine was collected for 24 h by using metabolic cages on days 28 and 29. Serum and urine Ca levels were measured in the same way as in the single-dosing study.

[7] = Pharmacokinetics in normal rats
Procedure: (§3) PCO371 was administered at a dose of 2, 6 or 18 mg kg^−1 orally to 7-week-old normal female rats (RccHan: WIST, JLA; three rats for each dose group), or at a dose of 2, 6 or 18 mg kg^−1 orally to 7-week-old female TPTX rats [Crl:CD(SD), Charles River Laboratories; three TPTX rats for each dose group] or at 30 mg kg^−1 orally or 3, 10 mg kg^−1 intravenously to 55-week-old OVX rats as described above. Blood samples were collected at 15 and 30 min, and 1, 2, 4, 8 and 24 h after administration. […] The concentrations of plasma PCO371 were determined by liquid chromatography–tandem mass spectrometry [LC-MS/MS (API-3200 (AB SCIEX), detection limit: 1 ng ml^−1).

OVX rats = assay: Repeated administration study in OVX rats; assay type: in vivo, rat; conditions: day 84, all treated rats
Procedure: OVX was carried out in 32-week-old female Crl:CD (SD) rats (Charles River Laboratories). Twelve weeks after surgery, lumbar vertebral BMD (L3–L5) was measured in vivo by dual-energy X-ray absorptiometry (DXA) using a DCS-600EX-IIIR bone densitometer (Hitachi Aloka Medical), and the rats were divided into five groups, each with a similar mean value of BMD and body weight. Sample sizes were determined based on previous experiments with hPTHs and a published study with ibandronate and eldecalcitriol in our laboratories[42] (n=7–10). Then, OVX rats were treated once daily intravenously (vehicle or PCO371 at 3 or 10 mg kg^−1) or orally (vehicle or PCO371 at 30 mg kg^−1) or subcutaneously [vehicle or hPTH(1–34) at 0.9 nmol kg^−1] for 12 weeks. Ten to twelve OVX rats were assigned to each dose group. Nine rats were assigned to the sham-operated control group and were treated with vehicle for PCO371. Ten per cent DMSO (Wako Pure Chemical Industries)/10% Kolliphor EL (Sigma-Aldrich) in 10% hydroxypropyl-β-cyclodextrin (HPCD; Nihon Shokuhin Kako)/0.752% glycine (Wako Pure Chemical Industries) buffer was used as vehicle for PCO371, and phosphate-citrate buffer (pH 6.0) was used as vehicle for hPTH(1–34). To label bone-forming surfaces, tetracycline ([…], Nippon Zenyaku Kogyo) was subcutaneously injected on Day 78 and calcein (8 mg kg^−1, Dōjindo Laboratories) was subcutaneously injected on day 83. Under isoflurane anaesthesia, jugular vein blood was collected immediately before and at 1, 2, 6, 10 and 24 h after administration on day 82 to measure plasma concentration of PCO371 or on day 84 to measure serum Ca levels (o-CPC method, Wako Pure Chemical Industries). Urine was collected for 24 h from metabolic cages on days 84–85 to measure urinary collagen type 1 cross-linked C-telopeptide (CTX) by using the RatLaps ELISA System (Immunodiagnostic Systems). Under isoflurane anaesthesia, blood was collected on day 85 from the abdominal aorta to measure serum osteocalcin level by using the Rat Osteocalcin ELISA System (GE Healthcare). The lumbar spine and bilateral femurs were excised after 12 weeks of treatment. The first lumbar vertebra (L1), 3rd to 5th lumbar vertebrae (L3–L5), the right femur, and the right tibia were preserved in 70% ethanol to measure bone histomorphometry and BMD (DCS-600EX; Hitachi Aloka Medical). Measurement of bone histomorphometry was performed by the Ito Bone Histomorphometry Institute (Niigata, Japan). The second lumbar vertebra (L2) was wrapped in saline-soaked gauze and stored at −80 °C until measurement. Ultimate compressive strength (N) of the L2 vertebra was measured by using a mechanical testing machine (TK-252C; Muromachi Kikai).

in vivo = conditions: female, Crl:CD(SD), rat, sc
Procedure: as §3

rat PTHR2 = target: T1, rat PTHR2 (Rattus norvegicus, UniProt P70555); assay: cAMP production assay in COS-7 cells expressing rat PTHR2; assay type: cell-based
T1 construct: expressed in transfected cells; host or cells: COS-7 (transient)
Procedure: (§2) COS-7 cells (ATCC) were seeded into a 96-well flat-bottomed plate (1.4 × 10^4 cells per 100 μl per well) and incubated overnight. The next day, the COS-7 cells were transfected by adding 10 μl of a mixture of hPTHR1, hPTHR2 or mutant hPTHR1 plasmid, rat PTHR1 or rat PTHR2 plasmid, or empty vector (0.1 μg per well), FuGENE HD Transfection Reagent (0.4 μl per well, Promega), and Opti-MEM I Reduced Serum Medium (10 μl per well, Life Technologies) to each well. […] The plate was placed in a 37 °C constant-temperature water bath for 20 min to allow the reaction to proceed. After incubation, the liquid in the wells was discarded, the wells were washed with the assay medium (100 μl per well), and the plate was frozen on dry ice. Next, 40 μl of 50 mmol l^−1 HCl was added to each well, and the plate was stored in a freezer set at ≤−20 °C. The cAMP concentrations were measured by using a cAMP EIA kit (GE Healthcare). EC50 values were determined from three independent experiments in duplicate by a non-linear regression Emax model (JMP ver.9.0.2, SAS Institute). The geometric mean of the EC50 values obtained in three experiments in duplicate was calculated using Microsoft Office Excel 2007. […]

hPTHR2 = target: T2, hPTHR2 (Homo sapiens, UniProt P49190); assay: cAMP production assay in COS-7 cells expressing hPTHR2; assay type: cell-based; conditions: COS-7 cells expressing human PTHR2
T2 construct: expressed in transfected cells; host or cells: COS-7 (transient)
Procedure: as §2

[8] = female, Crl:CD(SD), rat, plasma, sc, 3 nmol/kg

T1 sequence (P70555 25-546): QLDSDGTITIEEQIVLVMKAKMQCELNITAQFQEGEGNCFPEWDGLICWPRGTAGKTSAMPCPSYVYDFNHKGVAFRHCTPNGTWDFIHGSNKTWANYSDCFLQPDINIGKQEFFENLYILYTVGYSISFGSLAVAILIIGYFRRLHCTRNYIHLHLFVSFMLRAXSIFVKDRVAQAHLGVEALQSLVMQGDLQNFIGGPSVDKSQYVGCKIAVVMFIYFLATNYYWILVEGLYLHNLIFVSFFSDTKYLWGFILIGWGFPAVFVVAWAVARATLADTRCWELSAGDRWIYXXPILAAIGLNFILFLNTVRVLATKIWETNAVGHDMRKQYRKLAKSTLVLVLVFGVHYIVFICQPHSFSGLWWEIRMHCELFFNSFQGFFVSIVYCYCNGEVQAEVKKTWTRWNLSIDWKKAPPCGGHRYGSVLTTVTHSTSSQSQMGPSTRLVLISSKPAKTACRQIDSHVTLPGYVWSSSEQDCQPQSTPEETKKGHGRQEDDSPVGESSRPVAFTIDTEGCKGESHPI
T2 sequence (P49190 25-550): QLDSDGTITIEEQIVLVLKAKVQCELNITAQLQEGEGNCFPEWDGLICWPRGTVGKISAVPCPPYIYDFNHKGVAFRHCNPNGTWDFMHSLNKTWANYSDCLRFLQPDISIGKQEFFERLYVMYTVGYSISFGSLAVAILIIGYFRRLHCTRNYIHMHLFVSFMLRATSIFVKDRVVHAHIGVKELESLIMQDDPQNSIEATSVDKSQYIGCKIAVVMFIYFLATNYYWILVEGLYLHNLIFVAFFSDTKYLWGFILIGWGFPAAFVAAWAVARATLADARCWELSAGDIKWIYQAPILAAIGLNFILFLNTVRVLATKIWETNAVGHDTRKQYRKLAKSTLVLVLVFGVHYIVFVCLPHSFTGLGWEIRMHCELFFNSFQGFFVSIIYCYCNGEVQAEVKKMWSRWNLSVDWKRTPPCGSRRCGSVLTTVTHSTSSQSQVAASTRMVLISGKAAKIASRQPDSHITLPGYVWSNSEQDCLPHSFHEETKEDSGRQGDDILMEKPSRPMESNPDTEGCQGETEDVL

Compound: hPTH(1–84): the full-length, native PTH molecule called human PTH(1–84) [reference compound]
- urinary Ca excretion (TPTX rats [1]; after 4-week treatment, s.c. once daily 9 nmol kg^−1): No increase
- serum Ca (TPTX rats [1]; subcutaneous 9 nmol kg^−1 for 4 weeks, target therapeutic range 7.6–11.2 mg dl^−1): transiently increased serum Ca to within the target therapeutic range
- Tmax at the first peak [2]: 15 min
- Tmax at the second peak [2]: 120 min
- duration of observed effects (patients): up to 24 h
- patients with hypercalcemia at peak times (patients): 71%
- time of peak Ca levels after administration (patients): around 7 h
- serum Ca levels (TPTX rats [3]): failed to induce any changes
- Tmax [4]: 5 to 15 min
- AUC ([5]; s.c. 30 nmol kg-1): 1.80 ± 0.78 ng·h/mL
- Cmax ([5]; s.c. 30 nmol kg-1): 3.42 ± 1.10 ng/mL
- T1/2 ([5]; s.c. 30 nmol kg-1): 12 ± 6 min
- Tmax ([5]; s.c. 30 nmol kg-1): 12 ± 12 min
- AUC ([5]; s.c. 100 nmol kg-1): 8.55 ± 4.63 ng·h/mL
- Cmax ([5]; s.c. 100 nmol kg-1): 8.67 ± 1.97 ng/mL
- T1/2 ([5]; s.c. 100 nmol kg-1): 102 ± 132 min
- Tmax ([5]; s.c. 100 nmol kg-1): 6 ± 6 min
- AUC ([5]; s.c. 300 nmol kg-1): 21.0 ± 5.58 ng·h/mL
- Cmax ([5]; s.c. 300 nmol kg-1): 39.7 ± 10.3 ng/mL
- T1/2 ([5]; s.c. 300 nmol kg-1): 66 ± 54 min
- Tmax ([5]; s.c. 300 nmol kg-1): 6 ± 6 min

Compound: C=C1/C(=C\C=C2/CCC[C@]3(C)[C@@H]([C@H](C)CCCC(C)C)CC[C@@H]23)C[C@@H](O)C[C@@H]1O [Alfacalcidol, 1α-hydroxycholecalciferol, reference compound]
- serum Ca (TPTX rats [6]): normalized the serum Ca to within or above the target therapeutic range
- urinary Ca excretion (TPTX rats [6]): considerable urinary Ca excretion

- AUC(0-inf) [7, 8]: 0.99 ± 0.17 ng·h/mL
- Cmax [7, 8]: 2.42 ± 0.53 ng/mL
- Tmax [7, 8]: 6 ± 6 min
- bioavailability [7, 8]: 22%
- Tmax ([7]; rat (Table 1)): 5 min
- Cmax ([7]; rat, plasma, sc, 0.9 nmol/kg): ~0.125 ng/mL
- serum Ca (OVX rats): within the normal range
- half-life (in vivo): 15 min
- half-life (in vivo; 3 nmol/kg): 18 ± 6 min
Compound: CC[C@H](C)[C@H](NC(=O)[C@H](CCC(=O)O)NC(=O)[C@H](CO)NC(=O)[C@@H](NC(=O)[C@@H](N)CO)C(C)C)C(=O)N[C@@H](CCC(N)=O)C(=O)N[C@@H](CC(C)C)C(=O)N[C@@H](CCSC)C(=O)N[C@@H](Cc1cnc[nH]1)C(=O)N[C@@H](CC(N)=O)C(=O)N[C@@H](CC(C)C)C(=O)NCC(=O)N[C@@H](CCCCN)C(=O)N[C@@H](Cc1cnc[nH]1)C(=O)N[C@@H](CC(C)C)C(=O)N[C@@H](CC(N)=O)C(=O)N[C@@H](CO)C(=O)N[C@@H](CCSC)C(=O)N[C@@H](CCC(=O)O)C(=O)N[C@@H](CCCN=C(N)N)C(=O)N[C@H](C(=O)N[C@@H](CCC(=O)O)C(=O)N[C@@H](Cc1c[nH]c2ccccc12)C(=O)N[C@@H](CC(C)C)C(=O)N[C@@H](CCCN=C(N)N)C(=O)N[C@@H](CCCCN)C(=O)N[C@@H](CCCCN)C(=O)N[C@@H](CC(C)C)C(=O)N[C@@H](CCC(N)=O)C(=O)N[C@@H](CC(=O)O)C(=O)N[C@H](C(=O)N[C@@H](Cc1cnc[nH]1)C(=O)N[C@@H](CC(N)=O)C(=O)N[C@@H](Cc1ccccc1)C(=O)O)C(C)C)C(C)C [hPTH(1–34), reference compound]
- Tmax [2]: 30 min

Compound: TIP39: tuberoinfundibular peptide of 39 residues, the cognate ligand for PTHR2 [reference compound]
- cAMP production (rat PTHR2): showed an increase in cAMP production
- cAMP production (hPTHR2): showed an increase in cAMP production
